{"source": "IntAct's records for PubMed 25416956", "parents": {"B1": {"name": "Chorion-specific transcription factor GCMb (Homo sapiens), O75603 (parent)", "chain": "MPAAAVQEAVGVCSYGMQLSWDINDPQMPQELALFDQFREWPDGYVRFIYSSDEKKAQRHLSGWAMRNTNNHNGHILKKSCLGVVVCTQACTLPDGSRLQLRPAICDKARLKQQKKACPNCHSALELIPCRGHSGYPVTNFWRLDGNAIFFQAKGVHDHPRPESKSETEARRSAIKRQMASFYQPQKKRIRESEAEENQDSSGHFSNIPPLENPEDFDIVTETSFPIPGQPCPSFPKSDVYKATCDLATFQGDKMPPFQKYSSPRIYLPRPPCSYELANPGYTNSSPYPTLYKDSTSIPNDTDWVHLNTLQCNVNSYSSYERSFDFTNKQHGWKPALGKPSLVERTNHGQFQAMATRPYYNPELPCRYLTTPPPGAPALQTVITTTTKVSYQAYQPPAMKYSDSVREVKSLSSCNYAPEDTGMSVYPEPWGPPVTVTRAASPSGPPPMKIAGDCRAIRPTVAIPHEPVSSRTDEAETWDVCLSGLGSAVSYSDRVGPFFTYNNEDF", "partner": "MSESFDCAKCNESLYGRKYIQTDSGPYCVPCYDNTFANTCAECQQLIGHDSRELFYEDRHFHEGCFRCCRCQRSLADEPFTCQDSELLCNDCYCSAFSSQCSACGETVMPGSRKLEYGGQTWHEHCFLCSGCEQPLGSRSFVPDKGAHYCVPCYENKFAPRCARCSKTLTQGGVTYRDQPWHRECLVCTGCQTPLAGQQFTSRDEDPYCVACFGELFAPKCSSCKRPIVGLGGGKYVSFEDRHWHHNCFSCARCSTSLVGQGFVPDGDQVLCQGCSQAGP"}, "B2": {"name": "Serotonin N-acetyltransferase (Homo sapiens), Q16613 (parent)", "chain": "MSTQSTHPLKPEAPRLPPGIPESPSCQRRHTLPASEFRCLTPEDAVSAFEIEREAFISVLGVCPLYLDEIRHFLTLCPELSLGWFEEGCLVAFIIGSLWDKERLMQESLTLHRSGGHIAHLHVLAVHRAFRQQGRGPILLWRYLHHLGSQPAVRRAALMCEDALVPFYERFSFHAVGPCAITVGSLTFMELHCSLRGHPFLRRNSGC"}, "B3": {"name": "Inactive peptidyl-prolyl cis-trans isomerase FKBP6 (Homo sapiens), O75344 (parent)", "chain": "MGGSALNQGVLEGDDAPGQSLYERLSQRMLDISGDRGVLKDVIREGAGDLVAPDASVLVKYSGYLEHMDRPFDSNYFRKTPRLMKLGEDITLWGMELGLLSMRRGELARFLFKPNYAYGTLGCPPLIPPNTTVLFEIELLDFLDCAESDKFCALSAEQQDQFPLQKVLKVAATEREFGNYLFRQNRFYDAKVRYKRALLLLRRRSAPPEEQHLVEAAKLPVLLNLSFTYLKLDRPTIALCYGEQALIIDQKNAKALFRCGQACLLLTEYQKARDFLVRAQKEQPFNHDINNELKKLASCYRDYVDKEKEMWHRMFAPCGDGSTAGES", "partner": "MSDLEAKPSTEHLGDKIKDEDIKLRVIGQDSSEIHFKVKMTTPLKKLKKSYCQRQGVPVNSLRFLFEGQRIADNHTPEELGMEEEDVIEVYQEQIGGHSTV"}, "B4": {"name": "Beta-crystallin A4 (Homo sapiens), P53673 (parent)", "chain": "MTLQCTKSAGPWKMVVWDEDGFQGRRHEFTAECPSVLELGFETVRSLKVLSGAWVGFEHAGFQGQQYILERGEYPSWDAWGGNTAYPAERLTSFRPAACANHRDSRLTIFEQENFLGKKGELSDDYPSLQAMGWEGNEVGSFHVHSGAWVCSQFPGYRGFQYVLECDHHSGDYKHFREWGSHAPTFQVQSIRRIQQ", "partner": "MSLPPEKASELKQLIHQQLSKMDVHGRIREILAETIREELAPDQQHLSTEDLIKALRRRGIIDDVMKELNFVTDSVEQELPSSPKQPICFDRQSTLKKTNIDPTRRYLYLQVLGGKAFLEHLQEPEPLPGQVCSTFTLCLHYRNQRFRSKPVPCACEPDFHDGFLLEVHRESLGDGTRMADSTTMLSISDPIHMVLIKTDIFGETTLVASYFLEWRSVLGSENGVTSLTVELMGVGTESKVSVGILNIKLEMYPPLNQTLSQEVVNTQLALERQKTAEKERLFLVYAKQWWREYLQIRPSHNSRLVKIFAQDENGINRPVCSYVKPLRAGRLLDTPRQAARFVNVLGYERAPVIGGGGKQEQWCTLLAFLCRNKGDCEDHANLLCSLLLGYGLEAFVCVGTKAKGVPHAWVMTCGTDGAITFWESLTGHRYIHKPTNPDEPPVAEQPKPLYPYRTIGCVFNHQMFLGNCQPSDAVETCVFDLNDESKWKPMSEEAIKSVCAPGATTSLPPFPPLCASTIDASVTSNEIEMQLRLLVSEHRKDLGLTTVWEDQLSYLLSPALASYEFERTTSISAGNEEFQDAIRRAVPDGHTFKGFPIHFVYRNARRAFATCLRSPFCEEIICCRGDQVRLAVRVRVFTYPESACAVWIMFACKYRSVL"}, "B5": {"name": "X-linked retinitis pigmentosa GTPase regulator (Homo sapiens), Q92834 (parent)", "chain": "MREPEELMPDSGAVFTFGKSKFAENNPGKFWFKNDVPVHLSCGDEHSAVVTGNNKLYMFGSNNWGQLGLGSKSAISKPTCVKALKPEKVKLAACGRNHTLVSTEGGNVYATGGNNEGQLGLGDTEERNTFHVISFFTSEHKIKQLSAGSNTSAALTEDGRLFMWGDNSEGQIGLKNVSNVCVPQQVTIGKPVSWISCGYYHSAFVTTDGELYVFGEPENGKLGLPNQLLGNHRTPQLVSEIPEKVIQVACGGEHTVVLTENAVYTFGLGQFGQLGLGTFLFETSEPKVIENIRDQTISYISCGENHTALITDIGLMYTFGDGRHGKLGLGLENFTNHFIPTLCSNFLRFIVKLVACGGCHMVVFAAPHRGVAKEIEFDEINDTCLSVATFLPYSSLTSGNVLQRTLSARMRRRERERSPDSFSMRRTLPPIEGTLGLSACFLPNSVFPRCSERNLQESVLSEQDLMQPEEPDYLLDEMTKEAEIDNSSTVESLGETTDILNMTHIMSLNSNEKSLKLSPVQKQKKQQTIGELTQDTALTENDDSDEYEEMSEMKEGKACKQHVSQGIFMTQPATTIEAFSDEEVGNDTGQVGPQADTDGEGLQKEVYRHENNNGVDQLDAKEIEKESDGGHSQKESEAEEIDSEKETKLAEIAGMKDLREREKSTKKMSPFFGNLPDRGMNTESEENKDFVKKRESCKQDVIFDSERESVEKPDSYMEGASESQQGIADGFQQPEAIEFSSGEKEDDEVETDQNIRYGRKLIEQGNEKETKPIISKSMAKYDFKCDRLSEIPEEKEGAEDSKGNGIEEQEVEANEENVKVHGGRKEKTEILSDDLTDKAEDHEFSKTEELKLEDVDEEINAENVESKKKTVGDDESVPTGYHSKTEGAERTNDDSSAETIEKKEKANLEERAICEYNENPKGYMLDDADSSSLEILENSETTPSKDMKKTKKIFLFKRVPSINQKIVKNNNEPLPEIKSIGDQIILKSDNKDADQNHMSQNHQNIPPTNTERRSKSCTIL", "partner": "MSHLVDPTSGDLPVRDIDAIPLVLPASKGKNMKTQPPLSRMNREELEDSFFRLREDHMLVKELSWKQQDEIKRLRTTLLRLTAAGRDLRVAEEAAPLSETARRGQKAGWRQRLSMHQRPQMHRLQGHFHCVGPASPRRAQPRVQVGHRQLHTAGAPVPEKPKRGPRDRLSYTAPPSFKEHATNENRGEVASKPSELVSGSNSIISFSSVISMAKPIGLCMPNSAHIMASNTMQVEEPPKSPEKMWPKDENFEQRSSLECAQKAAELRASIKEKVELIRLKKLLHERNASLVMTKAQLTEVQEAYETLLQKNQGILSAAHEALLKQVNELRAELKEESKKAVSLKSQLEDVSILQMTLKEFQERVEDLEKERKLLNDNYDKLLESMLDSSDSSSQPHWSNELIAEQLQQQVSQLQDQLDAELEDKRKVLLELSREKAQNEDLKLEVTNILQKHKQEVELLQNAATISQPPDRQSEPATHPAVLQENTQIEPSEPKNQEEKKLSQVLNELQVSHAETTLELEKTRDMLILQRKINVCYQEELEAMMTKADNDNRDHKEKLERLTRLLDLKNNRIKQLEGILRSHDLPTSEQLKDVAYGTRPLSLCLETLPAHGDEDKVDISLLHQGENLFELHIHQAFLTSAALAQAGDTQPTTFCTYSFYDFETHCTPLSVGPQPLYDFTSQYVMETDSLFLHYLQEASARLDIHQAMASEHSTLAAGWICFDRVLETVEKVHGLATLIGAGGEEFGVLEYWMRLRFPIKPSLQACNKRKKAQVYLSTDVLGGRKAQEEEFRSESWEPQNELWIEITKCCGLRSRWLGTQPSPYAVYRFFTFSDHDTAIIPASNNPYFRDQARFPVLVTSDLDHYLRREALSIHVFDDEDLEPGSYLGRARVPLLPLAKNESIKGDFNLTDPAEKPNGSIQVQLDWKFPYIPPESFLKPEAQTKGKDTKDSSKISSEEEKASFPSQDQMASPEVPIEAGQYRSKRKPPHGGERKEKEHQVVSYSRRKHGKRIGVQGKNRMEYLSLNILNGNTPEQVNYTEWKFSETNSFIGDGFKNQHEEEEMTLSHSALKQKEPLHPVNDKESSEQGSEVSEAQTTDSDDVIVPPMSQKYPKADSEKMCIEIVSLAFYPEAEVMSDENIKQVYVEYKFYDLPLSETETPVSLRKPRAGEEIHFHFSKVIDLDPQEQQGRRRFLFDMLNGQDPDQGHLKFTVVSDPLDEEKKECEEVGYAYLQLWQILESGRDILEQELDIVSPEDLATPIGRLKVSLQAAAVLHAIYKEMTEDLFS"}, "B6": {"name": "Lipopolysaccharide-induced tumor necrosis factor-alpha factor (Homo sapiens), Q99732 (parent)", "chain": "MSVPGPYQAATGPSSAPSAPPSYEETVAVNSYYPTPPAPMPGPTTGLVTGPDGKGMNPPSYYTQPAPIPNNNPITVQTVYVQHPITFLDRPIQMCCPSCNKMIVSQLSYNAGALTWLSCGSLCLLGCIAGCCFIPFCVDALQDVDHYCPNCRALLGTYKRL", "partner": "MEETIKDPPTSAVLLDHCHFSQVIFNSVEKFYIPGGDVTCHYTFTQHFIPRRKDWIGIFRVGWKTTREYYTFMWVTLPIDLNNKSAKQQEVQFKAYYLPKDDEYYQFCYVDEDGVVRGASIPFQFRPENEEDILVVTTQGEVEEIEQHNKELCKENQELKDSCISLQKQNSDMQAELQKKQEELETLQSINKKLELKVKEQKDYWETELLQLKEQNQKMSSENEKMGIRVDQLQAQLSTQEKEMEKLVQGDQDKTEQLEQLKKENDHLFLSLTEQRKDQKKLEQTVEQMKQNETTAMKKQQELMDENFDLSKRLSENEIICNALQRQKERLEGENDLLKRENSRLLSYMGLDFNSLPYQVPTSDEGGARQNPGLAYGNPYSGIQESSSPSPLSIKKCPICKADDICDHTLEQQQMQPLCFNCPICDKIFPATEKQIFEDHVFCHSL"}}, "data": [{"variants_of": "B1", "conditions": "with fhl3_human FHL3, Q13643", "values": [{"variant": "R47L", "effect of a mutation on the interaction": "disrupting interaction"}]}, {"variants_of": "B2", "conditions": "with bhe40_human BHLHE40, O14503", "values": [{"variant": "A129T", "effect of a mutation on the interaction": "disrupting interaction"}]}, {"variants_of": "B3", "conditions": "with sumo5_human SUMO1P1, G2XKQ0", "values": [{"variant": "F72L", "effect of a mutation on the interaction": "disrupting interaction"}]}, {"variants_of": "B4", "conditions": "with cep76_human CEP76, Q8TAP6", "values": [{"variant": "V36M", "effect of a mutation on the interaction": "disrupting interaction"}]}, {"variants_of": "B4", "conditions": "with cep76_human CEP76, Q8TAP6", "remark": "another data set of the same source", "values": [{"variant": "F94S", "effect of a mutation on the interaction": "disrupting interaction"}]}, {"variants_of": "B4", "conditions": "with cep76_human CEP76, Q8TAP6", "remark": "another data set of the same source", "values": [{"variant": "L69P", "effect of a mutation on the interaction": "disrupting interaction"}]}, {"variants_of": "B5", "conditions": "with rpgr1_human RPGRIP1, Q96KN7", "values": [{"variant": "H98Q", "effect of a mutation on the interaction": "disrupting interaction"}]}, {"variants_of": "B5", "conditions": "with rpgr1_human RPGRIP1, Q96KN7", "remark": "another data set of the same source", "values": [{"variant": "T255I", "effect of a mutation on the interaction": "disrupting interaction"}]}, {"variants_of": "B6", "conditions": "with caco2_human CALCOCO2, Q13137", "values": [{"variant": "G112S", "effect of a mutation on the interaction": "disrupting interaction"}]}]}
